The values that follow come from US20140155466.

Holding throughout (assay): cell_activity
In data set [1] the test system is Human alpha1/beta2-receptor autoantibodies (Alzheimer patient) (Homo sapiens). As to conditions: Alzheimer patient 1, 8.0 without aptamer; 100 nM.
Data set [2] deals with Human autoantibodies against PAR receptor (PAR-receptor AAB) (Homo sapiens). The note with it: Raynaud patient 1, 7.33 without aptamer; 100 nM.
For data set [3], the system named is Human autoantibodies against alpha1-adrenergic receptor (alpha1-receptor AAB) (Homo sapiens). As to conditions: pulmonary hypertension patient 2, 5.17 without aptamer; 100 nM.
Data set [4] has as its system Human autoantibodies against angiotensin II AT1 receptor (AT1-receptor AAB) (Homo sapiens). As to conditions: malignant hypertension, 7.83 without aptamer; kidney transplant 6.17 to 0.17; 100 nM.
Data set [5] deals with Human autoantibodies against beta1-adrenergic receptor (beta1-receptor AAB, 1st loop) (Homo sapiens). As to conditions: DCM patient 1, 6.33 without aptamer; 100 nM.
Data set [6] has as its system Human autoantibodies against beta1-adrenergic receptor (beta1-receptor AAB, 2nd loop) (Homo sapiens).
Data set [7] relates to Human autoantibodies against beta2-adrenergic receptor (beta2-receptor AAB) (Homo sapiens). The note with it: 100 nM.
Data set [8] deals with Human autoantibodies against endothelin receptor type A (ETA-AAB) (Homo sapiens). As to conditions: pulmonary hypertension patient 2, -4.8 without aptamer.
Data set [9] deals with Human autoantibodies against muscarinic M2 receptor (M2-receptor AAB) (Homo sapiens). As to conditions: -3.67 without aptamer, 100 nM.

In the case of “GGTTGGTGTGGTTGG [thrombin-aptamer ARC183]”, the activity (delta beats/15 sec) in data set [1] is 0; in data set [2], 0.17; in [3], 0.33; in [4], 0.67; in data set [5] it was -0.17; in [6] (DCM patient 1, 5.33 without aptamer, 100 nM aptamer, rat cardiomyocyte bioassay) it was 0.17. Also, the activity (delta beats/15 sec) came out at 0.33 in [7] (glaucoma patient 1, 7.33 without aptamer); 0.33 in data set [8] (100 nM); 0.5 in [9] (Chagas cardiomyopathy).
As for “GGTTGGTGTGGTTGG [3'-dT cap thrombin-aptamer]”, the activity (delta beats/15 sec) in data set [6] (3'-dT cap, DCM, 6.0 without aptamer, 100 nM) turned out to be 0; in [7] (3'-dT cap, Alzheimer, 5.17 without aptamer), 0.
“GGTTGGTGTGGTTGG [5'-FITC-thrombin-aptamer]” displayed an activity (% neutralization) in data set [6] (loop not stated, 100 nM FITC-aptamer) of 50.
As to “CGCCTAGGTTGGGTAGGGTGGTGGCG [NU172 (ARC2172)]”, the activity (delta beats/15 sec) in data set [3] came out at 2; in data set [6] (peripartum cardiomyopathy, 6.33 without aptamer, 100 nM, partial), 4; in [7] (glaucoma patient 1, 7.33 without aptamer, Chagas megacolon patient 6.17 to 2.0) it was 5.33; in data set [8] (sign as printed), 2; in data set [9] (sign as printed), 3.
